Reference: publication PMC3935945, “Insight into Highly Conserved H1 Subtype-Specific Epitopes in Influenza Virus Hemagglutinin” (PLoS ONE, 2014)
Changes are numbered by the printed parent chain.

Experiments:
Assay in all cases: ELISA
[1] = target: T1, hemagglutinin (HA) of H1N1 A/Thailand/CU44/2006 (CU44) (Influenza A virus A/Thailand/CU44/2006 …, UniProt A7LI25, strain); settings: both partners purified
T1 construct: also called CU44 HA

[2] = target: T2, recombinant hemagglutinin (HA) of 2009 pandemic virus A/Korea/01/2009 (KR01) (Influenza A virus A/Korea/01/2009 (H1N1), strain); settings: both partners purified
T2 construct: also called KR01 HA; H1N1 HA

[3] = target: T3, HA from A/California/04/2009(H1N1) (Influenza A virus A/California/04/2009 …, UniProt C3W5S1, strain)
T3 construct: also called CA04

[4] = target: T4, HA from A/California/07/2009(H1N1) (Influenza A virus A/California/07/2009 …, UniProt C3W5X2, strain)
T4 construct: also called CA07

[5] = target: T5, HA from A/Brisbane/59/2007(H1N1) (Influenza A virus A/Brisbane/59/2007 …, UniProt D5F1Q8, strain)
T5 construct: also called BR59

Measured: binding result

B1: H1-specific monoclonal antibody GC0587 (antibody, V domains shown)
VH: VKLQQSGGGVVQPGGSLRLSCAASGFTFSDYDMSWIRQAPGKGLEWVSGILGGSERSYYRDSVKGRFTISRDNSRKTLYLQMNSLRAEDTAVYYCARHGSPGYTLYAWDYWGQGTMVTVSS
VL: DIQMTQSPASLAVSPGQRATITCRASESVSNYGINFINWFQQKPGQPPKLLIYTASNKGTGVPARFSGSGSGTDFTLTINPVEAEDTANYFCQQTKEVPYTFGGGTKLEIK
notes: copies: 2 + 2
binds: [1] | [2] | [3] | [4] | [5]

B2: H1-specific monoclonal antibody GC0757 (antibody, V domains shown)
VH: VKLQESGAVVQPGGSLRLSCAASGFTGSDYDMSWIRQAPGKGLEWVSGILGGSERSYYRDSVKGRSTISRDNSRKTLYLEMNSLRAEDTAVYYCARHSWGAYVQYGMDGWGQGTTVTVSS
VL: B1 VL with T101G, F102T, G103F
notes: copies: 2 + 2
binds: [1] | [2] | [3] | [4] | [5]
